Test results reported in patent US20260008817A1, “CYCLIC PEPTIDE OR SALT THEREOF, AND USES THEREOF” (FUJIFILM Corporation, priority 2023, published 2026).
Positions of bridges follow the written chain, without caps; N, C: chain ends. No end group written: not given here. COCH2 = acetyl group that carries the bridge

These substances were tested against T1, Recombinant Human FGFR1 alpha (IIIc) Fc Chimera Protein (Homo sapiens, UniProt P11362) (assay: ELISA binding affinity of enzymatically synthesized peptide to FGFR). Details: ELISA luminescence signal at 10 nmol/L peptide, SEQ ID NO: 239 standardized to 1; enzyme synthesis product.
T1 construct: purchased R&D systems 658-FR-050
T1 sequence (P11362 with tags, fused parts or gaps limits assumed): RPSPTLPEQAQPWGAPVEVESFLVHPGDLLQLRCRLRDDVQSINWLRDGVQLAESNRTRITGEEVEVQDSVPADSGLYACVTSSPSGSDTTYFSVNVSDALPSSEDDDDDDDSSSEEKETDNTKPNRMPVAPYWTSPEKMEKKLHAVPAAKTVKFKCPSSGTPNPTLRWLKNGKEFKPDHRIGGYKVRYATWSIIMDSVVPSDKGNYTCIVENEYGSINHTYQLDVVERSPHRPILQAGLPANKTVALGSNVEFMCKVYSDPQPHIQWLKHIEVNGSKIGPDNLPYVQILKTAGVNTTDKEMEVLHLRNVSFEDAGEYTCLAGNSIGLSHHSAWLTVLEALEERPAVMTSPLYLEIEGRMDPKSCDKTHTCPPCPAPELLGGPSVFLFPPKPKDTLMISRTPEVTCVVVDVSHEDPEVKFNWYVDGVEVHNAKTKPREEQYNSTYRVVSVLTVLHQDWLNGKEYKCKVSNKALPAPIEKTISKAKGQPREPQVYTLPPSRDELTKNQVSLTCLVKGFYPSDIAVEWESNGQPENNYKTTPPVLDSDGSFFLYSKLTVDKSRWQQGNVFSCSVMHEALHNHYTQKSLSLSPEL
In short: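 Cell-free PUREfrex-translated cyclic peptides (Myc/HiBiT-tagged, quantified by HiBiT luminescence) bound 3 h at room temperature to immobilized FGFR1α(IIIc)-Fc, detected with anti-Myc and chemiluminescence. FGFR-specific signal at 10 nmol/L normalized to a reference cyclic peptide and graded A–D.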

Substance	Evaluation result of binding affinity to FGFR
285 (QCSWWYVQVWTYPFHVLK(COCH2)G; thioether 2-18 (inferred)) [compound 285]	C (0.1 or more and less than 0.5)
286 (HCLWSLHSFYTFKAWAK(COCH2)I; thioether 2-17 (inferred)) [compound 286]	C (0.1 or more and less than 0.5)
287 (YCPFEVYSWWVPKWHK(COCH2)I; thioether 2-16 (inferred)) [compound 287]	C (0.1 or more and less than 0.5)
288 (LCHLVFQFNPDTGKLWPK(COCH2)Y; thioether 2-18 (inferred)) [compound 288]	C (0.1 or more and less than 0.5)
289 (DCPWSVFSWYIPIYNK(COCH2)I; thioether 2-16 (inferred)) [compound 289]	C (0.1 or more and less than 0.5)
290 (FCVYTFDANAQSLDDALNK(COCH2)Q; thioether 2-19 (inferred)) [compound 290]	A (0.7 or more)
291 (ICVYTFDAHAHSLDDALTK(COCH2)I; thioether 2-19 (inferred)) [compound 291]	A (0.7 or more)
292 (ICVYTFDAHAHSLDAALNKI; not fully specified (residue 19, bridges)) [compound 292]	A (0.7 or more)
293 (ICVYTFDAHAHSLDAALTK(COCH2)V; thioether 2-19 (inferred)) [compound 293]	A (0.7 or more)
294 (ICVYTFDAHAHSLDAALTK(COCH2)Q; thioether 2-19 (inferred)) [compound 294]	A (0.7 or more)
295 (ICVYTFDAHAHSLDAALNKV; not fully specified (residue 19, bridges)) [compound 295]	A (0.7 or more)
296 (ICVYTFDAHAHSLDAALNKQ; not fully specified (residue 19, bridges)) [compound 296]	A (0.7 or more)
297 (ICVYTFDAHAHSLHDALNK(COCH2)I; thioether 2-19 (inferred)) [compound 297]	A (0.7 or more)
298 (ICVYTFDAHAHSLHDALTK(COCH2)V; thioether 2-19 (inferred)) [compound 298]	A (0.7 or more)
299 (ICVYTFDAHAHSLHDALTK(COCH2)Q; thioether 2-19 (inferred)) [compound 299]	A (0.7 or more)
300 (ICVYTFDAHAHSLHDALNK(COCH2)V; thioether 2-19 (inferred)) [compound 300]	A (0.7 or more)
301 (ICVYTFDAHAHSLHDALNK(COCH2)Q; thioether 2-19 (inferred)) [compound 301]	A (0.7 or more)
302 (ICVYTFDAHAHSLDDALNK(COCH2)I; thioether 2-19 (inferred)) [compound 302]	A (0.7 or more)
303 (ICVYTFDAHAHSLDDALTK(COCH2)V; thioether 2-19 (inferred)) [compound 303]	A (0.7 or more)
304 (ICVYTFDAHAHSLDDALTK(COCH2)Q; thioether 2-19 (inferred)) [compound 304]	A (0.7 or more)

Substance	Evaluation result of binding affinity to FGFR
305 (ICVYTFDAHAHSLDDALNK(COCH2)V; thioether 2-19 (inferred)) [compound 305]	A (0.7 or more)
306 (ICVYTFDAHAHSLDDALNK(COCH2)Q; thioether 2-19 (inferred)) [compound 306]	A (0.7 or more)
307 (FCVYTFDAHAHSLDAALTK(COCH2)I; thioether 2-19 (inferred)) [compound 307]	A (0.7 or more)
308 (FCVYTFDAHAHSLHDALTK(COCH2)I; thioether 2-19 (inferred)) [compound 308]	A (0.7 or more)
309 (FCVYTFDAHAHSLDDALTK(COCH2)I; thioether 2-19 (inferred)) [compound 309]	A (0.7 or more)
310 (ICVYTFDAHAQSLDAALTK(COCH2)I; thioether 2-19 (inferred)) [compound 310]	A (0.7 or more)
311 (ICVYTFDAHAQSLHDALTK(COCH2)I; thioether 2-19 (inferred)) [compound 311]	A (0.7 or more)
312 (ICVYTFDAHAQSLDDALTK(COCH2)I; thioether 2-19 (inferred)) [compound 312]	A (0.7 or more)
313 (FCVYTFDAHAHSLDAALNK(COCH2)I; thioether 2-19 (inferred)) [compound 313]	A (0.7 or more)
314 (FCVYTFDAHAHSLHDALNK(COCH2)I; thioether 2-19 (inferred)) [compound 314]	A (0.7 or more)
315 (FCVYTFDAHAHSLDDALNK(COCH2)I; thioether 2-19 (inferred)) [compound 315]	A (0.7 or more)
316 (FCVYTFDAHAHSLDAALTK(COCH2)Q; thioether 2-19 (inferred)) [compound 316]	A (0.7 or more)
317 (FCVYTFDAHAHSLHDALTK(COCH2)Q; thioether 2-19 (inferred)) [compound 317]	A (0.7 or more)
318 (FCVYTFDAHAHSLDDALTK(COCH2)Q; thioether 2-19 (inferred)) [compound 318]	A (0.7 or more)
319 (FCVYTFDAHAHSLDAALNK(COCH2)Q; thioether 2-19 (inferred)) [compound 319]	A (0.7 or more)
320 (FCVYTFDAHAHSLHDALNK(COCH2)Q; thioether 2-19 (inferred)) [compound 320]	A (0.7 or more)
321 (FCVYTFDAHAHSLDDALNK(COCH2)Q; thioether 2-19 (inferred)) [compound 321]	A (0.7 or more)
322 (CVYTFDAHAHSLDAALTK(COCH2)I; thioether 1-18 (inferred)) [compound 322]	A (0.7 or more)
323 (ICVYTFDANAHSLDAALTK(COCH2)I; thioether 2-19 (inferred)) [compound 323]	A (0.7 or more)
324 (ICVYTFDANAHSLHDALTK(COCH2)I; thioether 2-19 (inferred)) [compound 324]	A (0.7 or more)
